Experimental data: patent US10654893B2, “Self-assembling peptide compositions” (3-D MATRIX, LTD., priority 2014, dated 2020)

Assay: Rheological properties before and after DMEM treatment
Assay type: physicochemical
Description: Effects of Dulbecco's modified Eagle's medium (DMEM) (pH 7.4) on rheological properties of IEIK13 (SEQ ID NO:3), KLD12 (SEQ ID NO:2), and RADA16 (SEQ ID NO:1) compositions were evaluated using a rheometer (AR500, TA Instruments) with 40 mm plates. DMEM is a cell culture medium that contains 6.4 g/L of NaCl, 3.4 g/L NaHCO3 (sodium bicarbonate), minor amounts of other salts, various amino acids, and 4.5 g/L of glucose. The pH of DMEM is 7.2±0.2 and the osmolality is 335±30 mOsm/Kg H2O. DMEM is close to human physiological fluids, for example, blood.
Before being mixed with the DMEM solution, 1% peptide compositions were kept in 4° C. for at least 48 hours. To perform experiments, 1 mL of peptide composition was gently pipetted and placed on the plate of the rheometer. 2 mL of the DMEM solution was gently added around the peptide composition. The peptide composition was treated with the DMEM for two minutes, then medium was removed, and the plates were placed at a measuring geometry gap at around 450 μm. Measurements were performed at 37° C. after 2 min of relaxation. Frequency tests were performed from 1 rad/s to 100 rad/s at 1 Pa of oscillation stress.
Using a DHR-1 rheometer (TA Instruments), rheological properties of peptide compositions at selected concentrations were measured before and after the DMEM treatment. Frequency sweep tests were performed from 1 rad/sec to 10 rad/sec at 1 Pa and the storage moduli in the graphs were at 1 rad/sec. […] Results are shown in FIGS. 22A and 22B for RADA16 (SEQ ID NO:1) and FIGS. 23A and 23B for IEIK13 (SEQ ID NO:3), respectively.
Using a DHR-1 rheometer (TA Instruments), rheological properties of peptide compositions at selected ion strengths were evaluated 10 mins after the DMEM treatment. Frequency sweep tests were performed from 1 rad/sec to 10 rad/sec at 1 Pa and the storage modulus at 1 rad/sec was selected for data. […] At 0.9 M or higher ionic strengths of NaCl, RADA16 (SEQ ID NO:1) compositions became cloudy.

In the case of “Arg-Ala-Asp-Ala-Arg-Ala-Asp-Ala-Arg-Ala-Asp-Ala-Arg-Ala-Asp-Ala [RADA16]”, the Appearance of composition (0.9 M or higher ionic strengths of NaCl) is reported as “became cloudy”, the “Rheological properties as a function of ionic strength after DMEM treatment” value (10 mins after DMEM treatment, NaCl, decreased with 0.7 M or higher) is reported as “increased with ionic strength adjustment up to 0.7 M” and the “Change of rheological properties with DMEM treatment” value (selected NaCl ionic strengths, RADA16 statement follows 0.9 M or higher NaCl (no gelation)) is reported as “did not change with the DMEM treatment”. For the same substance, the “Rheological properties with DMEM treatment and/or pH elevation” value (selected concentrations, storage moduli at 1 rad/sec, 1 Pa) was “increased with the DMEM treatment and/or pH elevation”.
